Measured values reported in publication PMC5818740 (Protein Science : A Publication of the Protein Society, 2018).
One block for each binder: values may come before it.

Key:
[1] = molecular target: T1, lysine-methylated dimeric PICK1 PDZ-QSAV (human | , UniProt Q9NRD5 1-105, surface lysines methylated with 19C-labeled formaldehyde (so in the source)); experiment: NMR titration; 1H-13C HSQC of lysine-methylated dimeric PICK1 PDZ-QSAV with GluA2 peptide added; 40 mM sodium phosphate pH 6.8, 150 mM NaCl, 0.2 mM EDTA, DMSO, D2O; 298 K; conditions: both partners purified
T1 construct: human PICK1, residues 1 to 105, holding the PDZ domain; The methods say 'dimeric PICK1 PDZ-QSAV'; also called methylated PICK1 PDZ material; source: E. coli BL21 (DE3), purified; surface lysines methylated with labelled formaldehyde and sodium cyanoborohydride
T1 chain: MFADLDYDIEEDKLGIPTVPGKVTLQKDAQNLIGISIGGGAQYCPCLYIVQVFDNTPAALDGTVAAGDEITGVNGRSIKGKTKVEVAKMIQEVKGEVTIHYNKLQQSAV

[2] = molecular target: the molecule itself; experiment: crystal structure; disulfide-bridged, bCPA-treated PICK1 PDZ-QS dimer with BIO124, seeded with PICK1 PDZ-QSAV crystals; 0.1 M BisTRIS pH 5.5, 25% PEG3350, 4°C; 1.75 Å
[3] = molecular target: the molecule itself; experiment: SEC; Superdex 75 in 25 mM TRIS-HCl pH 8.0, 250 mM NaCl, 5% glycerol, 2 mM DTT (reducing conditions)
[4] = molecular target: the molecule itself; experiment: crystal structure; disulfide-locked PICK1 PDZ-QSAV dimer, crystallised with 4.5 molar equivalents of BIO124; 0.1 M BisTRIS pH 5.5, 25% PEG3350, 4°C; 2.44 Å

- binding result [1]: binds
B1: wild type GluA2 peptide (VYGIESVKI) (peptide)
peptide: VYGIESVKI
notes: also called Wt GluR2 peptide; source: synthetic peptide, bought: New England Peptide

B2: bCPA-treated PICK1 PDZ-QS (disulfide-bridged dimer, with BIO124) (domain or fragment)
chain: MFADLDYDIEEDKLGIPTVPGKVTLQKDAQNLIGISIGGGAQYCPCLYIVQVFDNTPAALDGTVAAGDEITGVNGRSIKGKTKVEVAKMIQEVKGEVTIHYNKLQQS
modifications: disulfide-bridged dimer
notes: human PICK1, residues 1 to 105, holding the PDZ domain; what is left of the fused PKCalpha QSAV tail after removal of the 0 and -1 position residues (AV) by carboxypeptidase A; Removal of AV was >95% by mass spectrometry; the small molecule BIO124 sits in the peptide groove of both chains; also called PICK1 PDZ-QS BIO124 complex; PICK1-PDZ-BIO124; source: E. coli BL21 (DE3), purified, oxidised …
- binding result [2]: binds

B3: PICK1 PDZ-QSAV (unlocked, reduced dimer) (domain or fragment)
chain: T1 chain
notes: The His tag is TEV cleavable; no cleavage step is described; also called PICK1 PDZ-QSAV protein; source: E. coli BL21 (DE3), purified (nickel resin, Superdex 75)
- stoichiometry N [3]: 2

B4: disulfide-bridged (locked) PICK1 PDZ-QSAV dimer (domain or fragment)
chain: T1 chain
modifications: intermolecular disulfides C44(A)-C46(B) and C44(B)-C46(A)
notes: human PICK1, residues 1 to 105, holding the PDZ domain; Same construct as m1 after oxidation; crystallised in the presence of BIO124, which was not seen in the structure; also called dimeric PICK1 PDZ-QSAV; oxidized dimer; source: E. coli BL21 (DE3), purified (nickel resin, Superdex 75), oxidised with 2.5 mM H2O2, Superdex 75
- binding result [4]: binds
